As usually defined, the Kd is the equilibrium constant for the complex coming apart.

“Also recorded” adds a separate entry of the source. Where a SMILES comes first, the peptide text is derived from it. Where no end group is shown, it is not given here. The star is where a group is joined. 5FAM = O=C1OC2(c3ccc(O)cc3Oc3cc(O)ccc32)c2ccc(C(=O)*)cc21

This is an account of results in article PMC2572193, “Structural Analysis of the Interactions Between Paxillin LD Motifs and α-Parvin” (Structure(London, England:1993), 2008).

Data set [1] has as its target T1, α-parvin-CHC (residues 242–372) (Homo sapiens, UniProt Q9NVD7).
T1 construct: α-parvin-CHC (242–372) were subcloned; GST (N, cleaved yes); made in house; host or cells: Escherichia coli BL21
T1 sequence (Q9NVD7 242-372): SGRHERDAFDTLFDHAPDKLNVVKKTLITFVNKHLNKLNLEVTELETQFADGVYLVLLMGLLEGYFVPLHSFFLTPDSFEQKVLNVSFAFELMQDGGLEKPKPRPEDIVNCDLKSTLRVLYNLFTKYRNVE
Nature of the data set: NMR 1H-15N HSQC titration of 15N-enriched α-parvin-CHC with LD peptides. In kind it is binding. As to conditions: for KD / affinity range in words: NMR titration, 50 mM sodium phosphate, 100 mM NaCl, pH 6.9, 25°C.

Data set [2] can be described thus: Solubility of LD peptide noted in NMR titration. The class given is physicochemical. As to conditions: NMR titration buffer, 50 mM sodium phosphate, 100 mM NaCl, pH 6.9. Here is the method:
Figure S2. Determination of KD-Values for the Interaction of α−Parvin-CHC w ith LD Peptides […]
Titrations were performed with peptides representing the LD1 (A), LD 2(B), LD3 (C), LD4 (D), and […]
δ∆(1H15N) > 0.2 ppm for LD1 and LD2) were fitted globally to a single-site model (see experimental procedures). The errors refer to the fit only and exclude experimental errors. Note […]
respectively. No value could be derived for LD5 due to its low affinity. The KD-value for LD1 represents the weighted average over both antiparallel binding orientations, which exchange fast […]

The target in data set [3] is paxillin LD1 (Homo sapiens) (UniProt P49023). As to conditions: cited from earlier work.
Data set [4] deals with T2, α-parvin-CHC (C-terminal calponin homology domain fragment of human α-parvin, residues 242-372) (human, UniProt Q9NVD7 242-372).
T2 construct: α-parvin, human, residues 242-372: the entire C-terminal CH domain and a portion of the inter-CH domain linker; Expressed from pGEX-6P1 (BamHI/EcoRI); also called type-5 CH domain of α-parvin; actopaxin; source: E. coli BL21, GST fusion, purified (glutathione sepharose, 3C-protease cleavage, Superdex 75); 15N-enriched for NMR
T2 sequence (looked up): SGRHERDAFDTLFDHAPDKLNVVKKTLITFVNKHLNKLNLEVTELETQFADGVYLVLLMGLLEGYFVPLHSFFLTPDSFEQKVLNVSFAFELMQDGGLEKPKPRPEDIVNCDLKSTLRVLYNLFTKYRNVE
Nature of the data set: NMR titration; 1H-15N HSQC of 235 μM 15N-enriched α-parvin-CHC titrated with LD peptide; 50 mM sodium phosphate, 100 mM NaCl, 2 mM DTT, 5% D2O, pH 6.9, 25°C; global fit to a single-site model. As to conditions: both partners purified.

Data set [5] addresses T2, α-parvin-CHC (C-terminal calponin …). The experiment in a line: fluorescence polarisation; fluorescence anisotropy; 50 nM 5-FAM-labeled LD1 peptide, protein up to 300 μM; 100 mM potassium phosphate, 2 mM DTT, pH 8.0, 25°C; global fit to a single-site model. As to conditions: both partners purified. On the technique in general: Polarisation of emitted light reports the rotation of a fluorescent probe.

Data set [6] concerns the target T3, full-length human α-parvin (1-372) (human, UniProt Q9NVD7 1-372).
T3 construct: α-parvin, human, full length, residues 1-372; Expressed from pGEX-6P1 (EcoRI/EcoRI); also called full-length α-parvin; actopaxin; source: E. coli BL21, GST fusion, purified (glutathione sepharose, 3C-protease cleavage, MonoQ)
T3 sequence (looked up): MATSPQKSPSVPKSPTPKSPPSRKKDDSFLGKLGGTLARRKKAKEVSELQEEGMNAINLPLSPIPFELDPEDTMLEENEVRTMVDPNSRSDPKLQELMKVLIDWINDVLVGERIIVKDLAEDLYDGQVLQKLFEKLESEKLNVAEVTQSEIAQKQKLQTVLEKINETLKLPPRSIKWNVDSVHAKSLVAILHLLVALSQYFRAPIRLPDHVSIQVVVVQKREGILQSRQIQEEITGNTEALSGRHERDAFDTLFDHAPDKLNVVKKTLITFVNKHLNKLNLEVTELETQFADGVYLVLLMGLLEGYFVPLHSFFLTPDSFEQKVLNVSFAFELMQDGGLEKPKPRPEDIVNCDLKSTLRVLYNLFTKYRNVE
The description is as above. As to conditions: both partners purified.

Regarding `CC[C@H](C)[C@H](NC(=O)[C@H](Cc1c[nH]cn1)NC(=O)[C@H](CO)NC(=O)[C@@H](NC(=O)[C@@H](NC(=O)[C@H](CO)NC(=O)[C@H](CCC(=O)O)NC(=O)[C@H](CC(C)C)NC(=O)[C@H](CC(=O)O)NC(=O)[C@H](C)NC(=O)[C@H](CC(C)C)NC(=O)[C@H](CC(C)C)NC(=O)[C@H](C)NC(=O)[C@H](CC(=O)O)NC(=O)[C@H](CC(C)C)NC(=O)[C@H](CC(=O)O)NC(=O)[C@H](CC(=O)O)NC(=O)[C@@H](N)CCSC)[C@@H](C)O)[C@@H](C)O)C(=O)N[C@@H](CO)C(=O)N[C@@H](CCCCN)C(=O)O` [LD1] (H-MDDLDALLADLESTTSHISK-OH), the “KD / affinity range in words” value in data set [1] is recorded as “micromolar range”.

As to `CC(C)C[C@H](NC(=O)[C@H](CCC(=O)O)NC(=O)[C@H](CC(C)C)NC(=O)[C@H](CC(C)C)NC(=O)[C@H](CC(C)C)NC(=O)[C@H](CCCNC(=N)N)NC(=O)[C@H](CC(=O)O)NC(=O)[C@H](CC(C)C)NC(=O)[C@H](CCC(=O)O)NC(=O)[C@H](CO)NC(=O)[C@H](CC(C)C)NC(=O)[C@@H](N)CC(N)=O)C(=O)N[C@@H](CC(N)=O)C(=O)N[C@@H](C)C(=O)N[C@H](C(=O)N[C@@H](CCC(N)=O)C(=O)N[C@@H](Cc1c[nH]cn1)C(=O)N[C@@H](CC(N)=O)C(=O)N1CCC[C@H]1C(=O)N1CCC[C@H]1C(=O)O)C(C)C` [LD2], the “KD / affinity range in words” value in data set [1] is listed as “micromolar range”.

Consider `CC(C)C[C@H](NC(=O)[C@H](CCC(=O)O)NC(=O)[C@H](CC(=O)O)NC(=O)[C@H](CC(C)C)NC(=O)[C@H](CC(C)C)NC(=O)[C@H](CO)NC(=O)[C@H](CCC(=O)O)NC(=O)[C@@H](NC(=O)[C@H](CO)NC(=O)[C@@H]1CCCN1C(=O)[C@H](CCCNC(=N)N)NC(=O)[C@@H](N)C(C)C)C(C)C)C(=O)N[C@@H](CCC(=O)O)C(=O)N[C@@H](CO)C(=O)N[C@@H](CO)C(=O)N[C@H](C(=O)N1CCC[C@H]1C(=O)N[C@@H](CO)C(=O)N1CCC[C@H]1C(=O)N[C@H](C(=O)O)C(C)C)C(C)C` [LD3] (H-VRPSVESLLDELESSVPSPV-OH), for which the “KD / affinity range in words” value in data set [1] is recorded as “relatively low affinity; also recorded: millimolar range”.

As to `CSCC[C@H](NC(=O)[C@H](Cc1ccccc1)NC(=O)[C@H](CCCCN)NC(=O)[C@H](Cc1ccccc1)NC(=O)[C@H](CC(=O)O)NC(=O)[C@H](CO)NC(=O)[C@H](CC(C)C)NC(=O)[C@H](CO)NC(=O)[C@H](C)NC(=O)[C@H](CCSC)NC(=O)[C@H](CC(C)C)NC(=O)[C@H](CCC(=O)O)NC(=O)[C@H](CC(=O)O)NC(=O)[C@H](CC(C)C)NC(=O)[C@H](CCC(=O)O)NC(=O)[C@H](CCCNC(=N)N)NC(=O)[C@@H](NC(=O)[C@H](C)N)[C@@H](C)O)C(=O)N[C@@H](C)C(=O)N[C@@H](CCC(N)=O)C(=O)O` [LD4] (H-ATRELDELMASLSDFKFMAQ-OH), the “KD / affinity range in words” value in data set [1] is recorded as “micromolar range”. The “solubility (in words)” value in data set [2] is “poor solubility”.

PGSQLDSMLGSLQSDLNKLG [LD5]: in data set [1], the “KD / affinity range in words” value was “low affinity; also recorded: millimolar range; also recorded: mM range ^a”.

“PROXYL-labeled LD1: N-terminally blocked LD1 with N-terminal methionine replaced by cysteine, labeled with 3-maleimido-PROXYL (C(3‑maleimido‑PROXYL)DDLDALLADLESTTSHISK; also: N-terminally blocked (group not given here))”: the “KD-value compared with underivatized LD1 peptide” value in data set [1] (data not shown) is listed as “the same”.

With α-parvin CHC (from UniProt Q9NVD7), the Kd in data set [3] is 1200 µM.

B1: paxillin LD1 peptide (human paxillin residues 1-20) (peptide)
peptide: MDDLDALLADLESTTSHISK
notes: paxillin, human, LD1 motif, residues 1-20; source: synthetic peptide, bought: Severn Biotech
As to B1, the equilibrium dissociation constant (Kd) in data set [4] amounted to 96 ± 2 µM.

B2: 5-FAM-labeled LD1 peptide (paxillin residues 1-20) (peptide)
peptide: MDDLDALLADLESTTSHISK(5FAM)
notes: paxillin, human, LD1 motif, residues 1-20; also called fluorophore-labeled LD1 peptide; source: synthetic peptide, bought: Severn Biotech
Consider B2, for which the Kd in data set [5] worked out at 120 ± 20 µM; in data set [6], 130 ± 22 µM.

B3: paxillin LD3 peptide (human paxillin residues 213-232) (peptide)
peptide: VRPSVESLLDELESSVPSPV
notes: paxillin, human, LD3 motif, residues 213-232; source: synthetic peptide, bought: Severn Biotech
In the case of B3, in data set [4], the Kd was determined as 2300 ± 100 µM.

B4: paxillin LD2 peptide (human paxillin residues 141-160) (peptide)
peptide: NLSELDRLLLELNAVQHNPP
notes: paxillin, human, LD2 motif, residues 141-160; source: synthetic peptide, bought: Severn Biotech
For B4, binding in data set [4] was put at a Kd of 204 ± 3 µM.

B5: paxillin LD4 peptide (human paxillin residues 262-281) (peptide)
peptide: ATRELDELMASLSDFKFMAQ
notes: paxillin, human, LD4 motif, residues 262-281; source: synthetic peptide, bought: Severn Biotech
For B5, in data set [4], binding was put at a Kd of 140 ± 30 µM.
